Where two headings read alike, the source gives them in different places.
What was measured:
[1] = biological target: Hemagglutinin of H1N1 A/CA/07/09 (influenza A virus); experiment: cell-based or functional assay
[2] = biological target: Hemagglutinin of H5N1 A/VN/1204 (influenza A virus); experiment: cell-based or functional assay
[3] = biological target: Hemagglutinin of H3N2 A/Hong Kong/8/68 (influenza A virus); experiment: cell-based or functional assay
[4] = biological target: Hemagglutinin of H3N2 A/New York/55/2004 (influenza A virus); experiment: cell-based or functional assay
[5] = biological target: Hemagglutinin of H3N2 A/Perth/16/2009 (influenza A virus); experiment: cell-based or functional assay
[6] = biological target: Hemagglutinin of H3N2 A/Wisconsin/67/2005 (influenza A virus); experiment: cell-based or functional assay
[7] = biological target: Hemagglutinin of H4N4 A/Bufflehead (influenza A virus); experiment: cell-based or functional assay
[8] = biological target: Hemagglutinin of H7N7 A/Netherlands/219/03 (influenza A virus); experiment: cell-based or functional assay
[9] = biological target: Hemagglutinin of H1N1 A/CA/07/09 (influenza A virus); experiment: FortéBio
[10] = biological target: Hemagglutinin of H5 Vietnam/1203/2004 (influenza A virus); experiment: FortéBio
[11] = biological target: Hemagglutinin of H1N1 A/CA/07/09 (influenza A virus); experiment: cell-based or functional assay; remark: listed apart in the source
[12] = biological target: Hemagglutinin of H2N2 A/Mallard/MN/2008 (influenza A virus); experiment: cell-based or functional assay
[13] = biological target: Hemagglutinin of H5N1 A/VN/1204 (influenza A virus); experiment: cell-based or functional assay; remark: listed apart in the source
[14] = biological target: Hemagglutinin of H9N2 Mallard/MN/98 (influenza A virus); experiment: cell-based or functional assay
[15] = biological target: Influenza A hemagglutinin of clade H1 (strain not stated) (influenza A virus); experiment: FortéBio biolayer interferometry
[16] = biological target: Influenza A hemagglutinin of clade H5 (strain not stated) (influenza A virus); experiment: FortéBio biolayer interferometry
[17] = biological target: Influenza A hemagglutinin of clade H7 (strain not stated) (influenza A virus); experiment: FortéBio biolayer interferometry
[18] = biological target: Influenza A hemagglutinin of clade H9 (strain not stated) (influenza A virus); experiment: FortéBio biolayer interferometry
[19] = biological target: Hemagglutinin of H1N1 A/CA/07/09 (influenza A virus); experiment: affinity, method not named in Table 3
[20] = biological target: Hemagglutinin of H5N1 A/VN/1204 (influenza A virus); experiment: affinity, method not named in Table 3
[21] = biological target: Influenza A hemagglutinin of clade H3 (strain not stated) (influenza A virus); experiment: FortéBio biolayer interferometry
[22] = biological target: Hemagglutinin of H3N2 A/Hong Kong/8/68 (influenza A virus); experiment: FortéBio
[23] = biological target: Hemagglutinin of H3N2 A/Perth/16/2009 (influenza A virus); experiment: FortéBio
[24] = biological target: Hemagglutinin of H7N7 A/Netherlands/219/03 (influenza A virus); experiment: FortéBio
[25] = biological target: Hemagglutinin of H10N7 A/Northern Shoveler (influenza A virus); experiment: cell-based or functional assay
[26] = biological target: Hemagglutinin of H3 A/Phillipines/2/82 x-79 (influenza A virus); experiment: cell-based or functional assay
[27] = biological target: Hemagglutinin of H3 A/SW/MN/02719 (influenza A virus); experiment: cell-based or functional assay
[28] = biological target: Hemagglutinin of H3 A/Udorn/307/1976 (influenza A virus); experiment: cell-based or functional assay
[29] = biological target: Hemagglutinin of H3N2 A/Hong Kong/8/68 (influenza A virus); experiment: cell-based or functional assay; remark: listed apart in the source
[30] = biological target: Hemagglutinin of H3N2 A/New York/55/2004 (influenza A virus); experiment: cell-based or functional assay; remark: listed apart in the source
[31] = biological target: Hemagglutinin of H3N2 A/Perth/16/2009 (influenza A virus); experiment: cell-based or functional assay; remark: listed apart in the source
[32] = biological target: Hemagglutinin of H3N2 A/Wisconsin/67/2005 (influenza A virus); experiment: cell-based or functional assay; remark: listed apart in the source
[33] = biological target: Hemagglutinin of H4N4 A/Bufflehead (influenza A virus); experiment: cell-based or functional assay; remark: listed apart in the source
[34] = biological target: Hemagglutinin of H7 A/Redknot/NJ/1523470/06 (influenza A virus); experiment: cell-based or functional assay
[35] = biological target: Hemagglutinin of H7 A/Ruddy Turnstone/A106-892 (influenza A virus); experiment: cell-based or functional assay
[36] = biological target: Hemagglutinin of H7 A/Sanderling/A106-125 (influenza A virus); experiment: cell-based or functional assay
[37] = biological target: Hemagglutinin of H7N3 A/Canada/rv444/04 (influenza A virus); experiment: cell-based or functional assay
[38] = biological target: Hemagglutinin of H7N7 A/Netherlands/219/03 (influenza A virus); experiment: cell-based or functional assay; remark: listed apart in the source
[39] = biological target: Hemagglutinin of H3N2 A/Hong Kong/8/68 (influenza A virus); experiment: affinity, method not named in Table 3
[40] = biological target: Hemagglutinin of H3N2 A/New York/55/2004 (influenza A virus); experiment: affinity, method not named in Table 3
[41] = biological target: Hemagglutinin of H3N2 A/Perth/16/2009 (influenza A virus); experiment: affinity, method not named in Table 3
[42] = biological target: Hemagglutinin of H7N3 A/Canada/rv444/04 (influenza A virus); experiment: affinity, method not named in Table 3
[43] = biological target: Hemagglutinin of H7N7 A/Netherlands/219/03 (influenza A virus); experiment: affinity, method not named in Table 3

For “CR6261 (mAb cloned from Crucell patents) (antibody)”, the EC50 for in vitro neutralization [1] was 4 µg/mL and the EC50 for in vitro neutralization [2] was 3.7 µg/mL.

“CR8020 (mAb cloned from Crucell patents) (antibody)” showed an EC50 for in vitro neutralization [3] of 7.6 µg/mL, an EC50 for in vitro neutralization [4] of 10 µg/mL and an EC50 for in vitro neutralization [5] of 2 µg/mL. For the same molecule, the EC50 for in vitro neutralization [6] was 3.5 µg/mL, the EC50 for in vitro neutralization [7] was over 40 µg/mL and the EC50 for in vitro neutralization [8] was 13.1 µg/mL.

B1: MAB53 (antibody, V domains shown)
VH: QVQLVQSGAEVRKPGSSVKVSCKVSGGIIRKYAINWVRQAPGQGLEWMGGIIAIFNTANYAQKFQGRVTITADESTSTVYMELSSLRSEDTALYYCARGMNYYSDYFDYWGQGSLVTVSP
VL: EIVLTQSPGTLSLSPGERATLSCRASQSVRSNNLAWYQHKPGQAPRLLIFGASSRATGIPDRFSGSGSGTDFTLTISRLEPEDFAVYYCQQYGSSPALTFGGGTKVEIK
With B1 the Kd [9] was 0.2 nM, the Kd [10] was 0.5 nM and the EC50 for in vitro neutralization [11] was 0.14 µg/mL. For the same molecule, the Potency Difference (MAB53 against CR6261) [11] was 30 x, the EC50 for in vitro neutralization [12] was 1.2 µg/mL and the EC50 for in vitro neutralization [13] was 0.1 µg/mL. The Potency Difference (MAB53 against CR6261) [13] was 40 x, the EC50 for in vitro neutralization [14] was 0.1 µg/mL and the Kd [15] was 0.06 nM. For the same molecule, the Kd [16] was 6 nM, the Kd [17] was 0.07 nM and the Kd [18] was 0.03 nM. It also gave a Kd [19] of 0.1 nM and a Kd [20] of 0.5 nM.

B2: MAB8 (antibody, V domains shown)
VH: EVQLVESGGGLVKPGGSLRLSCAASGFTFSTYTMSWVRQAPGQGLEWVSSITRTSSNIYYADSVEGRFTISRDNAKNSLYLQMHSLRVEDTAVYYCARISGVVGPVPFDYWGQGTLITVSS
VL: DIQMTQSPSSLSASVGDRVTITCRASQTISKYLNWYQQKPGRAPKLLIYSASSLQSGVPSRFTGSGSGTDFTLTITSLQPEDFATYYCQQSYRPSQITFGPGTKVDIK
Molecule B2 has a Kd [15] of 9 nM, a Kd [21] of 16 nM and a Kd [16] of 0.2 nM.

B3: MAB579 (antibody, V domains shown)
VH: QVQLVQSGAEVKKPGASVKVSCKTSGYTFTAYTIHWVRQAPGQRLEWMGWINAGNGHTKYSQRFKGRVTITRDTSARTTYMELRSLTSEDTALYFCARGPETYYYDKTNWLNSHPDEYFQHWGHGTQVTVSS
VL: DIQMTQSPSTLSASVGDRVTITCRASQTINNYLAWYQQKPGKAPKLLIYKASSLESGVPSRFSGSGSGTEFTLTISSLQPDDFATYYCQEYNNDSPLTFGGGTKVEIK
B3 was tested, and the Kd [22] was 0.2 nM, the Kd [23] was 0.7 nM and the Kd [24] was 0.4 nM. The EC50 for in vitro neutralization [25] was 0.8 µg/mL, the IC50, MDCK monolayer microneutralization assay [25] was 0.8 µg/mL and the IC50, MDCK monolayer microneutralization assay [26] was 0.9 µg/mL. It also gave an IC50, MDCK monolayer microneutralization assay [27] of 3.9 µg/mL, an IC50, MDCK monolayer microneutralization assay [28] of 1.9 µg/mL and an EC50 for in vitro neutralization [29] of 2 µg/mL. It also gave an IC50, MDCK monolayer microneutralization assay [29] of 2.8 µg/mL, a Potency Difference (MAB579 against CR8020) [29] of 3 x and an EC50 for in vitro neutralization [30] of 2 µg/mL. The IC50, MDCK monolayer microneutralization assay [30] was 1.1 µg/mL, the Potency Difference (MAB579 against CR8020) [30] was 5 x and the EC50 for in vitro neutralization [31] was 0.05 µg/mL. For the same molecule, the IC50, MDCK monolayer microneutralization assay [31] was 0.2 µg/mL, the Potency Difference (MAB579 against CR8020) [31] was 40 x and the EC50 for in vitro neutralization [32] was 1 µg/mL. For the same molecule, the IC50, MDCK monolayer microneutralization assay [32] was 1 µg/mL, the Potency Difference (MAB579 against CR8020) [32] was 3 x and the EC50 for in vitro neutralization [33] was 15 µg/mL. For the same molecule, the IC50, MDCK monolayer microneutralization assay [33] was 15.5 µg/mL, the Potency Difference (MAB579 against CR8020) [33] was 3 x and the IC50, MDCK monolayer microneutralization assay [34] was over 20 µg/mL. For the same molecule, the IC50, MDCK monolayer microneutralization assay [35] was over 20 µg/mL, the IC50, MDCK monolayer microneutralization assay [36] was over 20 µg/mL and the EC50 for in vitro neutralization [37] was 0.5 µg/mL. For the same molecule, the IC50, MDCK monolayer microneutralization assay [37] was 1.6 µg/mL, the EC50 for in vitro neutralization [38] was 0.7 µg/mL and the IC50, MDCK monolayer microneutralization assay [38] was 0.6 µg/mL. It also gave a Potency Difference (MAB579 against CR8020) [38] of 20 x, a Kd [39] of 0.2 nM and a Kd [40] of 0.2 nM. It also gave a Kd [41] of 0.8 nM, a Kd [42] of 0.6 nM and a Kd [43] of 0.4 nM.
